In patent publication US7687614 (University of California, dated 2010):

Target: the molecule itself
Test: SDS-PAGE not boiled, fluorescence imaging of the gel

B1: tdimer2(12) (tandem dimer of dimer2 with the 12 residue linker) (other)
chain: MRGSHHHHHHGMASMTGGQQMGRDLYDDDDKDPMVASSEDVIKEFMRFKVRMEGSVNGHEFEIEGEGEGRPYEGTQTAKLKVTKGGPLPFAWDILSPQFQYGSKAYVKHPADIPDYKKLSFPEGFKWERVMNFEDGGVVTVTQDSSLQDGTLIYKVKFRGTNFPPDGPVMQKKTMGWEASTERLYPRDGVLKGEIHQALKLKDGGHYLVEFKTIYMAKKPVQLPGYYYVDTKLDITSHNEDYTIVEQYERSEGRHHLFLGHGTGSTGSGSSMVASSEDVIKEFMRFKVRMEGSVNGHEFEIEGEGEGRPYEGTQTAKLKVTKGGPLPFAWDILSPQFQYGSKAYVKHPADIPDYKKLSFPEGFKWERVMNFEDGGVVTVTQDSSLQDGTLIYKVKFRGTNFPPDGPVMQKKTMGWEASTERLYPRDGVLKGEIHQALKLKDGGHYLVEFKTIYMAKKPVQLPGYYYVDTKLDITSHNEDYTIVEQYERSEGRHHLFL
notes: Exact junctions (SphI/SacI sites, start Met of second copy) are not spelled out
  binding result: binds
